Laboratory results from PMC5998080, “Structural and functional analysis of mRNA export regulation by the nuclear pore complex” (Nature Communications, 2018).
Each block holds one molecule with its values, some of them ahead of it.

Key:
[1] = molecular target: T1, S. cerevisiae Gle1^CTD•Nup42^GBM•Dbp5 (Saccharomyces cerevisiae, UniProt P20449+Q12315); assay: size exclusion chromatography, complex formation; type: binding; conditions: 0.5 mM IP6, 20 mM Tris pH 8.0, 100 mM NaCl, 5 mM DTT; IP6 bridges Gle1 and Dbp5
T1 construct: with Nucleoporin NUP42
T1 sequence (Q12315 243-538): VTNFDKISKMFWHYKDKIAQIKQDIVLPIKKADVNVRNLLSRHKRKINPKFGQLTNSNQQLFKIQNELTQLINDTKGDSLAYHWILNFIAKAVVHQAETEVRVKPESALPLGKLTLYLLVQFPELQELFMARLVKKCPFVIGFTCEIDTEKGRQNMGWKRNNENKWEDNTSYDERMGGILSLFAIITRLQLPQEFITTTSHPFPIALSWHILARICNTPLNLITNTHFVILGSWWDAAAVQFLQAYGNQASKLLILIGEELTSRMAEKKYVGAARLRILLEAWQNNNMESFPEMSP
T1 sequence (P20449 1-482): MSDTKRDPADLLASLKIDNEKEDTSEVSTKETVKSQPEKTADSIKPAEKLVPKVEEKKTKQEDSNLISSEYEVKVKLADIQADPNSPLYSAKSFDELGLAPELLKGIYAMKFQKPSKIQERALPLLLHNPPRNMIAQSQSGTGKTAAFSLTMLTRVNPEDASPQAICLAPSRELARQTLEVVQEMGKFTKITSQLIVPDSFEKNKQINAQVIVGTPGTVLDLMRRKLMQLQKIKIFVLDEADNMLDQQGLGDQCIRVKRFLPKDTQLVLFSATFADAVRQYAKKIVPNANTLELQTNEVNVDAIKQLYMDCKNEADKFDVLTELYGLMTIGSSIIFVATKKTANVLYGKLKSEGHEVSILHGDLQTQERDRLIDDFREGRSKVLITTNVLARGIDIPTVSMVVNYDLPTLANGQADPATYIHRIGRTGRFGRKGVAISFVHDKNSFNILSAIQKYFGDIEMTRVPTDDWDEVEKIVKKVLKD
T1 sequence (P49686 397-430 partner): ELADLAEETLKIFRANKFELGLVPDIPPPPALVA

[2] = molecular target: T2, C. thermophilum Gle1^CTD•Nup42^GBM (Thermochaetoides thermophila, UniProt G0S7F3); assay: X-ray crystal structure ([…] Å); type: binding; conditions: pH 6.3 MES, zinc sulfate; pocket on Gle1
T2 construct: E. coli; tags cleaved; with Nucleoporin NUP42

[3] = molecular target: T3, S. cerevisiae Gle1^CTD (Saccharomyces cerevisiae, UniProt Q12315); assay: differential scanning fluorimetry; type: binding; conditions: Tm without to with IP6 (25 µM); no Nup42; 20 mM Tris pH 8.0, 100 mM NaCl, 5 mM DTT
T3 construct: C-terminal domain alone (borders in supplement); His6-scGle1CTD from E. coli, tag cleaved
T3 sequence (Q12315 243-538): T1 sequence (Q12315 243-538)

[4] = molecular target: T4, S. cerevisiae Gle1^CTD•Nup42^GBM (Saccharomyces cerevisiae, UniProt Q12315); assay: isothermal titration calorimetry; type: binding
T4 construct: E. coli; His6 tag cleaved with PreScission; with Nucleoporin NUP42
T4 sequence (Q12315 243-538): T1 sequence (Q12315 243-538)
T4 sequence (P49686 397-430 partner): T1 sequence (P49686 397-430 partner)

[5] = molecular target: T5, H. sapiens DDX19 (human, UniProt Q9UMR2 1-479); assay: SEC; human DDX19 with Gle1^CTD•Nup42^GBM, without and with 0.5 mM IP6 (IP6 partially reduced complex formation); 20 mM TRIS (pH 8.0), 100 mM NaCl, 5 mM DTT; conditions: both partners purified
T5 construct: human DEAD-box helicase DDX19 (the printed residue numbers run to 479); also called hsDDX19; wild-type DDX19; source: E. coli BL21-CodonPlus(DE3)-RIL, purified (Ni-NTA, HiTrap Q, Superdex 200); not shown: His6, N-terminal, cleaved
T5 sequence (looked up): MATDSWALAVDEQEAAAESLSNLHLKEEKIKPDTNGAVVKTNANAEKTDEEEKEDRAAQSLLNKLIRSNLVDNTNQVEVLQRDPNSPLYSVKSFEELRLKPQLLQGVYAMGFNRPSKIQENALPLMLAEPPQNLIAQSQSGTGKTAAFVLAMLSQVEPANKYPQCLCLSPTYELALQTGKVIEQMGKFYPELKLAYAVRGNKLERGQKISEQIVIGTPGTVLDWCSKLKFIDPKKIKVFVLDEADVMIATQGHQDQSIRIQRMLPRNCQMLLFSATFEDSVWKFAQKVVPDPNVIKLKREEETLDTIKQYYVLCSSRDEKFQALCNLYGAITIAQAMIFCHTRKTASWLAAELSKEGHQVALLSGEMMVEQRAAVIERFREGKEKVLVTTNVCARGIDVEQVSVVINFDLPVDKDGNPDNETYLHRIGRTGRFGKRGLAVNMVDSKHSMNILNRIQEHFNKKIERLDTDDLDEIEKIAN

[6] = molecular target: T6, H. sapiens DDX19^∆N53 (residues 54–479) (human, UniProt Q9UMR2 54-479); assay: crystal structure; H. sapiens Gle1^CTD•Nup42^GBM•DDX19^∆N53, reconstituted from equimolar purified Gle1^CTD•Nup42^GBM and DDX19^∆N53; with ADP 3.6 Å or AMP-PNP•Mg^2+ 3.4 Å; conditions: both partners purified
T6 construct: human DEAD-box helicase DDX19 without the flexible N-terminal extension, residues 54-479; source: E. coli BL21-CodonPlus(DE3)-RIL, purified (Ni-NTA, HiTrap Q, Superdex 200); not shown: His6, N-terminal, cleaved
T6 sequence (looked up): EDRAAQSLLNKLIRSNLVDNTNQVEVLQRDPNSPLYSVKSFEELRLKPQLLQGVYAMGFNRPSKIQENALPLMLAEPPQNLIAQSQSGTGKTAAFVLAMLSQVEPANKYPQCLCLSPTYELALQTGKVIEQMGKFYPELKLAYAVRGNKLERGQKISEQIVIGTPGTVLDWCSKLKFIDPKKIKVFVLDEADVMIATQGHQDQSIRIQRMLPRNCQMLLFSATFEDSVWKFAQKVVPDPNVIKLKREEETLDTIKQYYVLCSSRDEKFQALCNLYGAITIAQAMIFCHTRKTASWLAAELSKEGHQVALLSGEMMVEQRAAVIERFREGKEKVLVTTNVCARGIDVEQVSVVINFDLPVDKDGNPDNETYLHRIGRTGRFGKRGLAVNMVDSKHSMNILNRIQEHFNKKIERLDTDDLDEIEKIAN

[7] = molecular target: T7, Nup155 C-terminal domain (Nup155^CTD, residues 870–1391) (human, UniProt O75694 870-1391); assay: SEC; Superdex 200 10/300 GL; 20 mM TRIS (pH 8.0), 100 mM NaCl, 5 mM DTT; proteins mixed and incubated 30 min on ice, twofold molar excess of the smaller component; fractions on Coomassie-stained SDS-PAGE; conditions: both partners purified
T7 construct: human Nup155, C-terminal domain, residues 870-1391; also called His6-Nup155^CTD; source: E. coli BL21-CodonPlus(DE3)-RIL, purified (Ni-NTA, HiTrap Q, Superdex 200); not shown: His6, N-terminal, cleaved
T7 sequence (looked up): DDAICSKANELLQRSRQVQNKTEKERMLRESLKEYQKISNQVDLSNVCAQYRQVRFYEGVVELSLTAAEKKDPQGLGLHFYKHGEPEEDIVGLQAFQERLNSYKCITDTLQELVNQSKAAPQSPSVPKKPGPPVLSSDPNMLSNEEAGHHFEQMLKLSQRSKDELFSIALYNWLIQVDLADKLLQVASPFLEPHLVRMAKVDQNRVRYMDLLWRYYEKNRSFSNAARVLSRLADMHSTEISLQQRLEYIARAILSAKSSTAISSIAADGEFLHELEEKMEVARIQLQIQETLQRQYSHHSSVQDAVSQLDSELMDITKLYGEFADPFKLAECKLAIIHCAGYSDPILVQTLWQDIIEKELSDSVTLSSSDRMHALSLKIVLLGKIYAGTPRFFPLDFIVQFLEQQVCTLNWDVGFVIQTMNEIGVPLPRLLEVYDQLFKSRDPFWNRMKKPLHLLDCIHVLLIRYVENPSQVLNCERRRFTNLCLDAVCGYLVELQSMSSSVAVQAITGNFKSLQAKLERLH

[8] = molecular target: T8, GST-Nup155^CTD (human, UniProt O75694 870-1391); assay: pull-down; GST-Nup155^CTD (20 μM) preincubated with a twofold molar ratio of Nup98^ΔFG or SUMO-Gle1^N, then with 0-8-fold molar ratios of the other protein; Glutathione Sepharose beads; 20 mM TRIS (pH 8.0), 100 mM NaCl, 5 mM DTT; conditions: both partners purified
T8 construct: human Nup155, C-terminal domain, residues 870-1391; Limits are those printed for Nup155^CTD; source: E. coli BL21-CodonPlus(DE3)-RIL, purified (Glutathione Sepharose, HiTrap Q, Superdex 200); not shown: GST, N-terminal, kept
T8 sequence (looked up): T7 sequence (looked up)

[9] = molecular target: T9, DDX19 (wild type) (Homo sapiens, UniProt Q9UMR2 1-479); assay: EMSA; + 1 uM Gle1CTD(382-698)•Nup42GBM(379-423): binding enhanced; 1 mM AMP-PNP, 2 mM MgCl2; 20 mM TRIS pH 8.0, 100 mM NaCl, 2 mM MgCl2, 1 mM DTT, 10% glycerol, 1 mM AMP-PNP; 25 ng RNA in 10 ul; 20 min on ice; 1.4% native agarose gel, 0.25x TBE, room temperature; conditions: protein: recombinant; tags: His6 removed by PreScission protease; label: none (SYBR gold stain); single strand
T9 sequence: T5 sequence (looked up)

T2 sequence (G0S381 441-557): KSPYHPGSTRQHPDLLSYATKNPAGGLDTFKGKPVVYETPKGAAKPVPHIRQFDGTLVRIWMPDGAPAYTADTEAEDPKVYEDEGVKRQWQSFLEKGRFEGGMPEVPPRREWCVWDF
T2 sequence (G0S7F3 216-529): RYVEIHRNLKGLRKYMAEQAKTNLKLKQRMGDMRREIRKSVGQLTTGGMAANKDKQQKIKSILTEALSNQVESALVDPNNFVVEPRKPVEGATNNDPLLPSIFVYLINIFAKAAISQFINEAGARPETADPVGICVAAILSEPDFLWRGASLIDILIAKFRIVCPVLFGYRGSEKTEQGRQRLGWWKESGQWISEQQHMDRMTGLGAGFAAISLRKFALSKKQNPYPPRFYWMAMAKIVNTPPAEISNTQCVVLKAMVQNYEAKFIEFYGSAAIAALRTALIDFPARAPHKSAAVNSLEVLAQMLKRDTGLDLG

Tm [3]: 22 to 37 °C
Kd [4]: ~3 nM
Molecule: O=P(O)(O)O[C@H]1[C@H](OP(=O)(O)O)[C@@H](OP(=O)(O)O)[C@H](OP(=O)(O)O)[C@@H](OP(=O)(O)O)[C@H]1OP(=O)(O)O [IP6]
size exclusion chromatography, complex formation [1]: Dbp5 and Gle1^CTD•Nup42^GBM only formed a complex in the presence of IP6
X-ray crystal structure (2.17 Å) [2]: IP6 binds to C. thermophilum Gle1^CTD and to S. cerevisiae Gle1^CTD in a similar orientation

binding result [5]: binds
binding result [6]: binds
B1: H. sapiens Gle1^CTD•Nup42^GBM complex (complex, human)
chain 1: VQDITMQWYQQLQDASMQCVLTFEGLTNSKDSQAKKIKMDLQKAATIPVSQISTIAGSKLKEIFDKIHSLLSGKPVQSGGRSVSVTLNPQGLDFVQYKLAEKFVKQGEEEVASHHEAAFPIAVVASGIWELHPRVGDLILAHLHKKCPYSVPFYPTFKEGMALEDYQRMLGYQVKDSKVEQQDNFLKRMSGMIRLYAAIIQLRWPYGNRQEIHPHGLNHGWRWLAQILNMEPLSDVTATLLFDFLEVCGNALMKQYQVQFWKMLILIKEDYFPRIEAITSSGQMGSFIRLKQFLEKCLQHKDIPVPKGFLTSSFWRS
chain 2: IIATDNVLFTPRDKLTVEELEQFQSKKFTLGKIPLKPPPLELLNV
notes: human Gle1 (splice variant Gle1B), C-terminal domain, residues 382-698; Chains as m16 and m17; also called hsGle1^CTD•His6-hsNup42^GBM; source: E. coli BL21-CodonPlus(DE3)-RIL, co-expressed, purified (Ni-NTA, heparin, Superdex 75); not shown: His6, N-terminal, cleaved

binding result [5]: binds
binding result [6]: binds
B2: H. sapiens Gle1 C-terminal domain (Gle1^CTD, residues 382–698) (domain or fragment, human, UniProt Q53GS7 382-698, looked up)
chain: B1 chain 1
notes: human Gle1 (splice variant Gle1B), C-terminal domain, residues 382-698; also called hsGle1^CTD; source: E. coli BL21-CodonPlus(DE3)-RIL, co-expressed with His6-hsNup42^GBM, purified (Ni-NTA, heparin, Superdex 75)

binding result [7]: binds
binding result [8]: binds
B3: SUMO-Gle1^N (SUMO fusion of human Gle1 residues 2–33) (domain or fragment, UniProt Q53GS7 2-33, looked up)
chain: PSEGRCWETLKALRSSDKGRLCYYRDWLLRRE
notes: human Gle1 (splice variant Gle1B), N-terminal residues 2-33; No cleavage of the His6-SUMO tag is described for this construct; also called His6-SUMO-hsGle1^N; source: E. coli BL21-CodonPlus(DE3)-RIL, purified (Ni-NTA, HiTrap Q, Superdex 200); not shown: SUMO, N-terminal, kept

B4: 53-nt ssRNA probe (ssRNA)
RNA: GUUUUUUUUUUUUUUUUUUUUCUCGAUCCGUAGUGAUCUACUGAGCAUCUCCC
binding result [9]: binds

binding result [7]: binds
binding result [8]: binds
B5: Nup98 lacking the FG repeat region (Nup98^∆FG, residues 498–880) (domain or fragment, human, UniProt P52948 498-880, looked up)
chain: QAVLQQHINSLTYSPFGDSPLFRNPMSDPKKKEERLKPTNPAAQKALTTPTHYKLTPRPATRVRPKALQTTGTAKSHLFDGLDDDEPSLANGAFMPKKSIKKLVLKNLNNSNLFSPVNRDSENLASPSEYPENGERFSFLSKPVDENHQQDGDEDSLVSHFYTNPIAKPIPQTPESAGNKHSNSNSVDDTIVALNMRAALRNGLEGSSEETSFHDESLQDDREEIENNSYHMHPAGIILTKVGYYTIPSMDDLAKITNEKGECIVSDFTIGRKGYGSIYFEGDVNLTNLNLDDIVHIRRKEVVVYLDDNQKPPVGEGLNRKAEVTLDGVWPTDKTSRCLIKSPDRLADINYEGRLEAVSRKQGAQFKEYRPETGSWVFKVSHF
notes: human Nup98, construct lacking the FG repeat region, residues 498-880; also called Nup98^ΔFG; His6-SUMO-Nup98^∆FG; source: E. coli BL21-CodonPlus(DE3)-RIL, purified (Ni-NTA, HiTrap Q, Superdex 200); not shown: His6, N-terminal, cleaved; SUMO, N-terminal, cleaved
